From publication PMC4141209

Molecular target: TlLhpI (OCD-like protein / Δ1-pyrroline-2-carboxylate reductase from Thermococcus litoralis DSM 5473) (Thermococcus litoralis DSM 5473)
Assay: SEC

stoichiometry N: 2
Substance: TlLhpI (OCD-like protein / Δ1-pyrroline-2-carboxylate reductase from Thermococcus litoralis DSM 5473) (enzyme)
